According to PMC3236198:

Target: ΔC SSB (Escherichia coli, UniProt P0AGE0)
Test: EMSA; additional complexes at higher SSB:DNA ratios; EMSA: 20 mM Tris-HCl pH 8.0, 50 mM NaCl, 5% glycerol, 50 µg/ml BSA, 4 °C, 30 min, 1 pmol DNA with 0.2, 2 or 10 pmol SSB in 15 µl; fluorescence: Buffer A (composition not given in the material) with ~50 or ~200 mM NaCl
Settings: protein: recombinant; chain copies: 4; label: 5'-32P

Sequence of ΔC SSB (P0AGE0 1-113, tags or fused parts left off): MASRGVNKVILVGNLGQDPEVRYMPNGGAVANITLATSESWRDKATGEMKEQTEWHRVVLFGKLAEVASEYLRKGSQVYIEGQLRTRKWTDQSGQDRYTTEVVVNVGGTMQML

B1: 79mer ssDNA (ssDNA)
DNA: GCACTAGTGCGGATAGCCCCGTGTTGTTGTCTGACCCCCGACCCCGACGGCAATGCGGGGCAATCCCCTGGAGGCCTGC
B1: binds.
